Laboratory results: patent US20170306053A1 (Astellas, published 2017)
Like-named read-outs stand apart in the source and are kept apart here. Each block holds one binder with its values, some of them ahead of it.

Legend:
[1] = target: T1, human TLR2 protein (R&D systems Co., 2616 TR/CF) (human, UniProt O60603 21-590); experiment: SPR (Biacore T200), human TLR2 captured on anti-His IgG, antibody as analyte, bivalent analyte model
T1 construct: Bought protein captured on an anti-His IgG chip; not shown: His tag implied by capture on anti-His IgG
T1 sequence (O60603 21-590): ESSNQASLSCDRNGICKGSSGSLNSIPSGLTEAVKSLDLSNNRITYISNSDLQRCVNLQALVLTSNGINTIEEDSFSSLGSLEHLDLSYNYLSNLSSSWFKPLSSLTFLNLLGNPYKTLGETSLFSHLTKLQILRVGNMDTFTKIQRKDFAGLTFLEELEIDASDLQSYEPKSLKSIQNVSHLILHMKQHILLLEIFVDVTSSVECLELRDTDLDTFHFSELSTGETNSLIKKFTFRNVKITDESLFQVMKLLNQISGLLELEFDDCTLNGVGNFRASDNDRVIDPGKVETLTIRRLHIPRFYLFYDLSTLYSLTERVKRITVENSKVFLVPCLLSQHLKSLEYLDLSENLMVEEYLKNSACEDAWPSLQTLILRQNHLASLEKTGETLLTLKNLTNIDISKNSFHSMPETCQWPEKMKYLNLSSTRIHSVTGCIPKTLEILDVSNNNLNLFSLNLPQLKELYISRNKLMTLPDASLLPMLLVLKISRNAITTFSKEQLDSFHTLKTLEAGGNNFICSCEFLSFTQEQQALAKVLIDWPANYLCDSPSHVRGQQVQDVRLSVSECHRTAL
Experimental: In order to evaluate the binding activity of the tandem form a prepared in Example 1 to the human TLR2, SPR analysis was performed. The tandem form c and the TLR2-IgG were used as the reference antibody. For SPR analysis, Biacore T200 (GE Healthcare Japan Corporation) was used. Anti-His IgG (attached to His Capture Kit) was immobilized on CMS sensor chip using His Capture Kit (GE Healthcare Japan Corporation, 28-9950-56) and Amine Coupling Kit (GE Healthcare Japan Corporation, BR-1000-50). […] Thereafter, a solution (eight step, two fold serial dilution in the concentration range of final concentration from 100 nM to 0.781 nM) obtained by serially diluting each purified antibody (tandem form a, tandem form c, or TLR 2-IgG) with HBS-EP+buffer was added at a flow rate of 50 μL/min for 2 minutes, and the binding between the purified antibody and TLR 2 was measured. Next, HBS-EP+buffer was added at a flow rate of 50 μL/min for 5 minutes, and dissociation of the purified antibody and the human TLR2 was measured. Bivalent analyte model, Rmax was analyzed by Fit local, a binding rate constant (kₐ) and a dissociation rate constant (kd) were calculated, and kd was divided by kₐ to calculate the binding dissociation constant (KD).

[2] = target: human TLR2 (endogenous, on U937 cells) (human, UniProt O60603 21-784); experiment: cell-based or functional assay
Sequence of human TLR2 (endogenous, on U937 cells) (O60603 21-784): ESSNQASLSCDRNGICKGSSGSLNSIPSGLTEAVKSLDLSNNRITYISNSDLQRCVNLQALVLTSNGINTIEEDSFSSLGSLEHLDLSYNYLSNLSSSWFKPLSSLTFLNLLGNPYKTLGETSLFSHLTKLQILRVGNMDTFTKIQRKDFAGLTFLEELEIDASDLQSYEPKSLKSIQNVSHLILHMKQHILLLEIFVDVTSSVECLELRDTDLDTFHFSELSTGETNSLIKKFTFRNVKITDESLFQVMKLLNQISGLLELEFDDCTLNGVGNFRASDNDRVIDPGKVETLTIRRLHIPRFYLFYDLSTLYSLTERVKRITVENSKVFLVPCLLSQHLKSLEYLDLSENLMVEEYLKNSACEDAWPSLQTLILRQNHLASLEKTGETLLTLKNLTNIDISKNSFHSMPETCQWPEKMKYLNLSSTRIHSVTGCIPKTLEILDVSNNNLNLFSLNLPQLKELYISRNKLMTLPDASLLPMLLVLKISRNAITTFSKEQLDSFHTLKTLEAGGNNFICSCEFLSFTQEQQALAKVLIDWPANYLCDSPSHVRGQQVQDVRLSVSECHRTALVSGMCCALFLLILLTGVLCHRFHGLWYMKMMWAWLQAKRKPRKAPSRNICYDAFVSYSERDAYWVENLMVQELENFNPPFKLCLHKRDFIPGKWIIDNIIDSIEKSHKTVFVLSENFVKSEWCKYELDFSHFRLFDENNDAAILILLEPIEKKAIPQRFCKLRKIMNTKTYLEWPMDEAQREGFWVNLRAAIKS

[3] = target: T2, human TLR4/MD2 (on cells) (human, UniProt O00206 24-839; Q9Y6Y9 19-160); experiment: cell-based or functional assay
T2 sequence (O00206 24-839, chain 1 of 2): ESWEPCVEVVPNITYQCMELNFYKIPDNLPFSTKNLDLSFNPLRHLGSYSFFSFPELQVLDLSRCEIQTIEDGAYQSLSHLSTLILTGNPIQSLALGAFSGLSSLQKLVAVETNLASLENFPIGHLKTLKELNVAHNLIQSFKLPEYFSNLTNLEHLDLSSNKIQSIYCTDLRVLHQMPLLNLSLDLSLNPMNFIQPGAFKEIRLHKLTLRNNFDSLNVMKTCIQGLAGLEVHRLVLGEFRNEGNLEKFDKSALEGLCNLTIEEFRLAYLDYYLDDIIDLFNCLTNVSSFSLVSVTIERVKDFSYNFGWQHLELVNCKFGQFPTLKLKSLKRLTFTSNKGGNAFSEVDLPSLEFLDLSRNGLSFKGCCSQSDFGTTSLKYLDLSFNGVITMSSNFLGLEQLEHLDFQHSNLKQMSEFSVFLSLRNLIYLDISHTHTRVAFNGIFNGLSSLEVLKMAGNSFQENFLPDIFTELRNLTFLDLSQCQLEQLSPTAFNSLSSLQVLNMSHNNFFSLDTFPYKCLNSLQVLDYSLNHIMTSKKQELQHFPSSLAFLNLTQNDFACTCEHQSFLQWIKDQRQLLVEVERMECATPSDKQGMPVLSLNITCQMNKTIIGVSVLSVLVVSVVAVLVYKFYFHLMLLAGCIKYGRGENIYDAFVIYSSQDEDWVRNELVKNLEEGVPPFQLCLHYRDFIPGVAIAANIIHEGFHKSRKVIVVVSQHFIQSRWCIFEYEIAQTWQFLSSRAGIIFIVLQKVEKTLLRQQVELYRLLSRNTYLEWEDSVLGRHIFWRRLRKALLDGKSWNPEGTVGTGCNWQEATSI
T2 sequence (Q9Y6Y9 19-160, chain 2 of 2): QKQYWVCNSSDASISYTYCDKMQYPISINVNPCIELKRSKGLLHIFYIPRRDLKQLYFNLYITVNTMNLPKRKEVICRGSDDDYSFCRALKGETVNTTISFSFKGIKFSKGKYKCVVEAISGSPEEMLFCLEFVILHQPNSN

[4] = target: T2, human TLR4/MD2 (on cells); experiment: cell ELISA on human TLR4/MD2 expressing HEK 293 cells
Experimental: In order to evaluate the binding activity of the tandem form a (bispecific antibody format having the anti-human TLR2 antibody portion on the outer side and the anti-human TLR4 antibody portion on the inner side) prepared in Example 1 to the human TLR4, cell ELISA was performed. As reference antibodies, the tandem form c and the TLR4-IgG were used. Human TLR4/MD2 expressing HEK 293 cells were seeded at 1×10⁴ cells/well in a BD Bio Coat poly D-lysine 384 well plate (Becton Dickinson Co., Ltd.) using an α-MEM culture medium (Life Technologies Co., Ltd.) and incubated overnight. […] Twenty minutes later, 25 μL of 1 M sulfuric acid was added to stop the color reaction, and the color intensity thereof was measured with Safire II (Tecan Co., Ltd.) to evaluate the binding activity of the antibody. Using the obtained measurement results, 50% effective concentration (EC₅₀) of each antibody was calculated from 4 parameter logistic curve regression by statistical analysis software GraphPad Prism (GraphPad Software Co., Ltd.).

[5] = target: T2, human TLR4/MD2 (on cells); experiment: cell-based or functional assay; remark: listed apart in the source

Kd [1]: 2690 pM
IC50 (read off the curve); inhibition of Pam2CSK4-induced IL-6 production in U937 cells [2]: ~100 pM
B1: TLR2-IgG (anti-human TLR2 antibody of IgG type) (antibody, V domains shown)
VH: QVQLQESGPGLVKPSETLSLTCTVSGGSISSFYWTWIRQPPGKGLEWIGYIHYSGSTNYNPSLKSRVTISVDTSKNQFSLTLSSVTAADTAVYYCARRRSMNWFDPWGQGTLVIVSS
VL: AIQMTQSPSSLSASVGDRVTITCRASQVIRNDLGWYQQKPGKAPKFLIYAASSLQSGVPSRFSGSGSGTDFTLTISSLQPEDFATYYCLQDYNYPLTFGGGTKVEIKR
notes: it says variable regions and human Iggamma1 / Igkappa constant regions as used in tandem form a

Kd [1]: 2320 pM
B2: Tandem form a (protease recognition sequence SEQ ID NO: 5; light chain linker SEQ ID NO: 9) (bispecific antibody)
chain 1: not shown
chain 2: AIQMTQSPSSLSASVGDRVTITCRASQVIRNDLGWYQQKPGKAPKFLIYAASSLQSGVPSRFSGSGSGTDFTLTISSLQPEDFATYYCLQDYNYPLTFGGGTKVEIKRTVAAPSVFIFPPSDEQLKSGTASVVCLLNNFYPREAKVQWKVDNALQSGNSQESVTEQDSKDSTYSLSSTLTLSKADYEKHKVYACEVTHQGLSSPVTKSFNRGEC
chain 3: not shown

IC50 (M), Neutralization Activity to Human TLR4 (LPS-induced IL-6 production inhibition, U937 cells) [3]: 2.2e-12 M
EC50 [4]: 380 pM
IC50 (M), Neutralization Activity to Human TLR4 (LPS-induced IL-6 production inhibition, U937 cells) [5]: 2.2e-12 M
B3: TLR4-IgG (anti-human TLR4 antibody of IgG type) (antibody, V domains shown)
VH: EVQLVESGGGLVQPGGSLRLSCAASGFTFDTYAMHWVRQAPGKGLEWVAGISWNSGNIGYADSVKGRFTISRDNSKNTLYLQMNSLRAEDTAVYYCAKDWDNWNLFDYWGQGTLVTVSS
VL: DIQMTQSPSSLSASVGDRVTITCRASQSISSWLAWYQQKPGKAPKLLIYKASSLESGVPSRFSGSGSGTDFTLTISSLQPEDFATYYCQQYSSYSWTFGQGTKVEIKR
notes: as for B1
